{
  "source": "paper PMC8200006",
  "binders": {"B1": {"name": "Recombinant Human SRI (sorcin), soluble resistance-related calcium-binding protein (natural protein)", "chain": "MAYPGHPGAGGGYYPGGYGGAPGGPAFPGQTQDPLYGYFAAVAGQDGQIDADELQRCLTQSGIAGGYKPFNLETCRLMVSMLDRDMSGTMGFNEFKELWAVLNGWRQHFISFDTDRSGTVDPQELQKALTTMGFRLSPQAVNSIAKRYSTNGKITFDDYIACCVKLRALTDSFRRRDTAQQGVVNFPYDDFIQCVMSV"}},
  "molecular_target": "purified pig brain plasma membrane Ca2+-ATPase (PMCA) (pig) (UniProt P23220)",
  "sequence (P23220 whole entry)": "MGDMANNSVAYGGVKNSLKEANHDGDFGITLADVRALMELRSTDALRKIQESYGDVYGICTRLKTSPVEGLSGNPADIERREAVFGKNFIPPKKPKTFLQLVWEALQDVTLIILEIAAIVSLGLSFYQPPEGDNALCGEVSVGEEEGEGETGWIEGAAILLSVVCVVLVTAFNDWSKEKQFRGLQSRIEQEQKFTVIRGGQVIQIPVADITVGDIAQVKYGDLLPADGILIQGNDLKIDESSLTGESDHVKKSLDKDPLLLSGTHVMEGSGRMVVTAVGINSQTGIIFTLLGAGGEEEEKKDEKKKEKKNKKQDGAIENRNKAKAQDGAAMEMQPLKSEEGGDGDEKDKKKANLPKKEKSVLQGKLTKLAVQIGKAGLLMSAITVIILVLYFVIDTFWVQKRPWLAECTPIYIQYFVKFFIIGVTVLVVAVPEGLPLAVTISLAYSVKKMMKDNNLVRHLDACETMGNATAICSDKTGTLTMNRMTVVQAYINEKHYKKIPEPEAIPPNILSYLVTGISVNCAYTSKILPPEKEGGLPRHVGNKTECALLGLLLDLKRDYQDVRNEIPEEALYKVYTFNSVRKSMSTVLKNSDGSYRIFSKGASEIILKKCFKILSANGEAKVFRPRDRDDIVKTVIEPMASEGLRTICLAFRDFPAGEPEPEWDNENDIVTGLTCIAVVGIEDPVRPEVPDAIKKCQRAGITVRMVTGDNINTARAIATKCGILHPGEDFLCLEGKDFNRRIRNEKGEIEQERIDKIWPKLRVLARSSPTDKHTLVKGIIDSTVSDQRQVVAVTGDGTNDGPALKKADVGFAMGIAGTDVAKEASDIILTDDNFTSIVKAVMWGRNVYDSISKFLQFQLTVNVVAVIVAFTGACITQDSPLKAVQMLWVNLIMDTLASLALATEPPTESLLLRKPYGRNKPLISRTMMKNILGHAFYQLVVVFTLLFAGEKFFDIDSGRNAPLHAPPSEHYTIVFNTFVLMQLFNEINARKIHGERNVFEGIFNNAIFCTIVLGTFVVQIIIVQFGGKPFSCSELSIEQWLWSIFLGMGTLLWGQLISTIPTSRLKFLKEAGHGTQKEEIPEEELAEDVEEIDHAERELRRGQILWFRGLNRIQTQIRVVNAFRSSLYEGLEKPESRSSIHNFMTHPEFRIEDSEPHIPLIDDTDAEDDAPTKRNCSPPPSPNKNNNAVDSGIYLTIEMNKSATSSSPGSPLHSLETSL",
  "data": [
    {"binder": "B1", "values": [
      {"measurement": "Ca2+-ATPase activity of purified pig brain PMCA reconstituted in PC, sorcin 12.5-50 nM in the assay medium, with Ca2+: fold activation", "result": 1.8, "unit": "fold"},
      {"measurement": "Ca2+-ATPase activity of purified pig brain PMCA reconstituted in PC: EC50 of activation by sorcin (in the assay medium)", "result": 12.5, "unit": "nM"}
    ]}
  ]
}
